This series addresses T1, Ioc4 PWWP domain (Saccharomyces cerevisiae) (UniProt Q04213).
T1 sequence: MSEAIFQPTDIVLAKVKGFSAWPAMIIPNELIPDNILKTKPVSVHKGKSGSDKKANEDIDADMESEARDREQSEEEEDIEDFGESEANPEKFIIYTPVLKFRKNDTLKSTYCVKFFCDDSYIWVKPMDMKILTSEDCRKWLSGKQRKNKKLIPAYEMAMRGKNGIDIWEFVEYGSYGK
Description: EMSA. The conditions noted are these: H3K36me3; H3 tail 1-44 ligated to H3T45C; Xenopus laevis histones. In general terms: A gel shift assay detects complexes by their altered migration in electrophoresis.

Substance NCP H3K36me3 displayed a binding signal (fold higher affinity vs dsDNA) of 6.

Values taken from publication doi:10.1101/2021.02.26.432832.
